Assay results from US20090280138A1 (OXFORD BIOMEDICA UK, published 2009).

Legend:
[1] = biological target: T1, MHC class I molecule HLA-B*0702 (iTopia plate-bound monomer) (biotin (bound to streptavidin-coated plate)); test: iTopia off-rate assay, 37 C; fit R^2 0.42
T1 construct: Commercial iTopia system; also called B7
Experimental: (§1) The 9 mers were tested for Peptide Binding, Off Rate and Affinity using iTopia Epitope Discovery System in accordance with the manufacturer's instructions. Briefly, 96 well microtitre plates coated with MHC molecules representing different MHC alleles are used to identify candidate peptides. […] Determinations are performed in duplicate using an ELISA plate reader and included allele specific positive controls.
(§2) A one-phase exponential decay curve, with a plateau given equal to 0, was generated using GraphPad Prism® software, which calculated the t1/2 and goodness-of-fit, as measured by r², for each peptide.

[2] = biological target: T2, MHC class I molecule HLA-A*0101 (iTopia plate-bound monomer) (biotin (bound to streptavidin-coated plate)); test: iTopia off-rate assay, 37 C; fit R^2 0.25
T2 construct: also called A1
Experimental: as §1, §2

[3] = biological target: T3, MHC class I molecule HLA-A*0201 (iTopia plate-bound monomer) (biotin (bound to streptavidin-coated plate)); test: iTopia off-rate assay, 37 C; fit R^2 0.33
T3 construct: also called A2
Experimental: as §1, §2

[4] = biological target: T4, MHC class I molecule HLA-A*0301 (iTopia plate-bound monomer) (biotin (bound to streptavidin-coated plate)); test: iTopia off-rate assay, 37 C; fit R^2 0.61
T4 construct: also called A3
Experimental: as §1, §2

[5] = biological target: T3, MHC class I molecule HLA-A*0201 (iTopia …); test: iTopia off-rate assay, 37 C; fit R^2 0.95
Experimental: as §1, §2

[6] = biological target: T1, MHC class I molecule HLA-B*0702 (iTopia …); test: iTopia off-rate assay, 37 C; fit R^2 0.68
Experimental: as §1, §2

[7] = biological target: T3, MHC class I molecule HLA-A*0201 (iTopia …); test: iTopia off-rate assay, 37 C; fit R^2 0.63
Experimental: as §1, §2

[8] = biological target: T1, MHC class I molecule HLA-B*0702 (iTopia …); test: iTopia off-rate assay, 37 C; fit R^2 0.84
Experimental: as §1, §2

[9] = biological target: T3, MHC class I molecule HLA-A*0201 (iTopia …); test: iTopia off-rate assay, 37 C; fit R^2 0.98
Experimental: as §1, §2

[10] = biological target: T1, MHC class I molecule HLA-B*0702 (iTopia …); test: iTopia off-rate assay, 37 C; fit R^2 0.91
Experimental: as §1, §2

[11] = biological target: T3, MHC class I molecule HLA-A*0201 (iTopia …); test: iTopia off-rate assay, 37 C; fit R^2 0.46
Experimental: as §1, §2

[12] = biological target: T1, MHC class I molecule HLA-B*0702 (iTopia …); test: iTopia off-rate assay, 37 C; fit R^2 0.23
Experimental: as §1, §2

[13] = biological target: T3, MHC class I molecule HLA-A*0201 (iTopia …); test: iTopia off-rate assay, 37 C; fit R^2 0.89
Experimental: as §1, §2

[14] = biological target: T1, MHC class I molecule HLA-B*0702 (iTopia …); test: iTopia off-rate assay, 37 C; fit R^2 0.88
Experimental: as §1, §2

[15] = biological target: T3, MHC class I molecule HLA-A*0201 (iTopia …); test: iTopia off-rate assay, 37 C; fit R^2 0.49
Experimental: as §1, §2

[16] = biological target: T1, MHC class I molecule HLA-B*0702 (iTopia …); test: iTopia off-rate assay, 37 C; fit R^2 0.11
Experimental: as §1, §2

[17] = biological target: T3, MHC class I molecule HLA-A*0201 (iTopia …); test: iTopia off-rate assay, 37 C; fit R^2 0.74
Experimental: as §1, §2

[18] = biological target: T4, MHC class I molecule HLA-A*0301 (iTopia …); test: iTopia off-rate assay, 37 C; fit R^2 0.88
Experimental: as §1, §2

[19] = biological target: T2, MHC class I molecule HLA-A*0101 (iTopia …); test: iTopia off-rate assay, 37 C; fit R^2 0.97
Experimental: as §1, §2

[20] = biological target: T2, MHC class I molecule HLA-A*0101 (iTopia …); test: iTopia off-rate assay, 37 C; fit R^2 0.87
Experimental: as §1, §2

[21] = biological target: T3, MHC class I molecule HLA-A*0201 (iTopia …); test: iTopia off-rate assay, 37 C; fit R^2 0.91
Experimental: as §1, §2

[22] = biological target: T3, MHC class I molecule HLA-A*0201 (iTopia …); test: iTopia off-rate assay, 37 C; fit R^2 0.79
Experimental: as §1, §2

[23] = biological target: T1, MHC class I molecule HLA-B*0702 (iTopia …); test: iTopia off-rate assay, 37 C; fit R^2 0.1
Experimental: as §1, §2

[24] = biological target: T3, MHC class I molecule HLA-A*0201 (iTopia …); test: iTopia off-rate assay, 37 C; fit R^2 0.87
Experimental: as §1, §2

[25] = biological target: T1, MHC class I molecule HLA-B*0702 (iTopia …); test: iTopia off-rate assay, 37 C; fit R^2 0.67
Experimental: as §1, §2

[26] = biological target: T1, MHC class I molecule HLA-B*0702 (iTopia …); test: iTopia off-rate assay, 37 C; fit R^2 0.26
Experimental: as §1, §2

[27] = biological target: T3, MHC class I molecule HLA-A*0201 (iTopia …); test: iTopia off-rate assay, 37 C; fit R^2 0.65
Experimental: as §1, §2

[28] = biological target: T4, MHC class I molecule HLA-A*0301 (iTopia …); test: iTopia off-rate assay, 37 C; fit R^2 0.01
Experimental: as §1, §2

[29] = biological target: T1, MHC class I molecule HLA-B*0702 (iTopia …); test: iTopia off-rate assay, 37 C; fit R^2 0.15
Experimental: as §1, §2

[30] = biological target: T2, MHC class I molecule HLA-A*0101 (iTopia …); test: iTopia off-rate assay, 37 C; fit R^2 0.88
Experimental: as §1, §2

[31] = biological target: T1, MHC class I molecule HLA-B*0702 (iTopia …); test: iTopia off-rate assay, 37 C; fit R^2 0.22
Experimental: as §1, §2

[32] = biological target: T3, MHC class I molecule HLA-A*0201 (iTopia …); test: iTopia off-rate assay, 37 C; fit R^2 0.66
Experimental: as §1, §2

[33] = biological target: T1, MHC class I molecule HLA-B*0702 (iTopia …); test: iTopia off-rate assay, 37 C; fit R^2 0.36
Experimental: as §1, §2

[34] = biological target: T4, MHC class I molecule HLA-A*0301 (iTopia …); test: iTopia off-rate assay, 37 C; fit R^2 0.58
Experimental: as §1, §2

[35] = biological target: T3, MHC class I molecule HLA-A*0201 (iTopia …); test: iTopia off-rate assay, 37 C; fit R^2 0.9
Experimental: as §1, §2

[36] = biological target: T4, MHC class I molecule HLA-A*0301 (iTopia …); test: iTopia off-rate assay, 37 C; fit R^2 0.95
Experimental: as §1, §2

[37] = biological target: T3, MHC class I molecule HLA-A*0201 (iTopia …); test: iTopia off-rate assay, 37 C; fit R^2 0.59
Experimental: as §1, §2

[38] = biological target: T1, MHC class I molecule HLA-B*0702 (iTopia …); test: iTopia off-rate assay, 37 C; fit R^2 0.66
Experimental: as §1, §2

[39] = biological target: T3, MHC class I molecule HLA-A*0201 (iTopia …); test: iTopia off-rate assay, 37 C; fit R^2 0.67
Experimental: as §1, §2

[40] = biological target: T1, MHC class I molecule HLA-B*0702 (iTopia …); test: iTopia off-rate assay, 37 C; fit R^2 0.02
Experimental: as §1, §2

[41] = biological target: T4, MHC class I molecule HLA-A*0301 (iTopia …); test: iTopia off-rate assay, 37 C; fit R^2 0.94
Experimental: as §1, §2

[42] = biological target: T1, MHC class I molecule HLA-B*0702 (iTopia …); test: iTopia off-rate assay, 37 C; fit R^2 0.75
Experimental: as §1, §2

B1: 5T4 9-mer peptide 59 LAELAALNL (peptide)
peptide: LAELAALNL
notes: also called Peptide No 59
[1]
  t½ half life: 3.2 h
[2]
  t½ half life: 2.5 h
[3]
  t½ half life: 13.1 h

B2: 5T4 9-mer peptide 104 RALQGLRRL (peptide)
peptide: RALQGLRRL
[4]
  t½ half life: 0.4 h
[5]
  t½ half life: 0.6 h
[6]
  t½ half life: 6 min

B3: 5T4 9-mer peptide 52 LAVLPAGAF (peptide)
peptide: LAVLPAGAF
notes: also called Peptide No 52
[7]
  t½ half life: 3.6 h
[8]
  t½ half life: 0.3 h

B4: 5T4 9-mer peptide 55 GAFARRPPL (peptide)
peptide: GAFARRPPL
notes: also called Peptide No 55
[9]
  t½ half life: 1.9 h
[10]
  t½ half life: 1.3 h

B5: 5T4 9-mer peptide 90 ILNHIVPPE (peptide)
peptide: ILNHIVPPE
notes: also called Peptide No 90
[11]
  t½ half life: 13 h

B6: 5T4 9-mer peptide 17 SPTSSASSF (peptide)
peptide: SPTSSASSF
notes: also called Peptide No 17
[12]
  t½ half life: 2.6 h

B7: 5T4 9-mer peptide 71 LPSLRQLDL (peptide)
peptide: LPSLRQLDL
notes: also called Peptide No 71
[13]
  t½ half life: 1.4 h
[14]
  t½ half life: 3.1 h

B8: 5T4 9-mer peptide 58 PPLAELAAL (peptide)
peptide: PPLAELAAL
notes: also called Peptide No 58
[15]
  t½ half life: 4.6 h
[16]
  t½ half life: 3 h

B9: 5T4 9-mer peptide 198 HMEGYHYRY (peptide)
peptide: HMEGYHYRY
notes: also called Peptide No 198
[17]
  t½ half life: 6.3 h
[18]
  t½ half life: 1.7 h
[19]
  t½ half life: 1.3 h

B10: 5T4 9-mer peptide 43 VPTDLPAYV (peptide)
peptide: VPTDLPAYV
notes: also called Peptide No 43
[20]
  t½ half life: 1.8 h
[21]
  t½ half life: 1.1 h

B11: 5T4 9-mer peptide 101 AALLAGRAL (peptide)
peptide: AALLAGRAL
[22]
  t½ half life: 1.9 h
[23]
  t½ half life: 1.6 h

B12: 5T4 9-mer peptide 84 ASVSAPSPL (peptide)
peptide: ASVSAPSPL
notes: also called Peptide No 84
[24]
  t½ half life: 0.4 h
[25]
  t½ half life: 6 min

B13: 5T4 9-mer peptide 86 APSPLVELI (peptide)
peptide: APSPLVELI
notes: also called Peptide No 86
[26]
  t½ half life: 1.6 h

B14: 5T4 9-mer peptide 20 SSFSSSAPF (peptide)
peptide: SSFSSSAPF
notes: also called Peptide No 20
[27]
  t½ half life: 0.4 h

B15: 5T4 9-mer peptide 100 VVAALLAGR (peptide)
peptide: VVAALLAGR
notes: also called Peptide No 100
[28]
  t½ half life: 8.1 h

B16: 5T4 9-mer peptide 7 DGRLRLARL (peptide)
peptide: DGRLRLARL
notes: also called Peptide No 7
[29]
  t½ half life: 2.6 h

B17: 5T4 9-mer peptide 21 FSSSAPFLA (peptide)
peptide: FSSSAPFLA
notes: also called Peptide No 21
[5]
  t½ half life: 0.3 h
[30]
  t½ half life: 0.2 h

B18: 5T4 9-mer peptide 2 GGCSRGPAA (peptide)
peptide: GGCSRGPAA
notes: also called Peptide No 2
[31]
  t½ half life: 1.3 h
[32]
  t½ half life: 0.5 h

B19: 5T4 9-mer peptide 204 ADPRLTNLS (peptide)
peptide: ADPRLTNLS
notes: also called Peptide No 204
[33]
  t½ half life: 3.1 h

B20: 5T4 9-mer peptide 53 VLPAGAFAR (peptide)
peptide: VLPAGAFAR
notes: also called Peptide No 53
[34]
  t½ half life: 0.5 h
[35]
  t½ half life: 2.2 h

B21: 5T4 9-mer peptide 8 RLRLARLAL (peptide)
peptide: RLRLARLAL
notes: also called Peptide No 8
[36]
  t½ half life: 0.2 h
[37]
  t½ half life: 7.2 h
[38]
  t½ half life: 3.1 h

B22: 5T4 9-mer peptide 23 APFLASAVS (peptide)
peptide: APFLASAVS
notes: also called Peptide No 23
[39]
  t½ half life: 1.6 h
[40]
  t½ half life: 2.6 h

B23: 5T4 9-mer peptide 65 RLDEVRAGA (peptide)
peptide: RLDEVRAGA
notes: also called Peptide No 65
[37]
  t½ half life: 9.7 h
[41]
  t½ half life: 0.2 h
[42]
  t½ half life: 0.2 h
